Results reported in the DeepSol protein solubility set.

Assay: soluble on expression in E. coli; label from the status in PepcDB or PDB records
In the case of “MSLSSERLIYLPLGGAGEIGMNAYVYGYGKPGKERLIVVDLGVAFPDMDTSPGVDLIIPDIAWLEERRDQIEAIFITHAHEDHIGAVAHTYDRLRAPIYTRKFTANIAKRKMDEYGHPDDAVTTVAPWPQQTTVGPFKVGFLPMSHSIPESSSLVIDVAGDRLIHSGDFKIDMTPGVGEPYDPELWADVSKDGVKALICDSTNVFSQHAGRSEATVGPEIEKLLGTAQGMVVATTFASNVARVKTLADAGERAGRSVVLLGRAMKRMVEASLETGVMKDFPPVVSPEEARGIPRENLMLLVTGSQGERRAASAQLARGKYMGLEMKEGDMFLFSSKTIPGNERGVIKVINAFSEMGVDIVDDSSGLYHVSGHANRPDLETLHDVVKPQILIPMHGEHRHLREHTKIANAKGMKGVLAVNGMMIDLSGNEPKVVEYVDSGRTYLDGSTQIGAMDGVVRDRIRMALNGHVTVTVILDENDEALGDPWVDAMGLPEQGRSKTSLVDVLEADLAQFLGRANAKTLRDDDKLHDGLKRTVRQSANDEIGKKPEVTIVVSRLSEGHHHHHH”, the “soluble on expression in E. coli” value is reported as “soluble”. In the case of “MSLHIHILGICGTFMGGVAMLARQLGHKVTGSDANVYPPMSTMLEAQGIEIIEGFDPVQLEPKPDLVVIGNAMSRGNPCVEYVLNHNLRYTSGPQWLQDFLLHDRWVIAVSGTHGKTTTSSMIAWVLEHCGYQPGFLVGGVLGNFGISARLGESMFFVVEADEYDSAFFDKRSKFVHYHPRTLVMNNLEFDHADIFDNLEAIKRQFHHLVRTVPGNGRILAPKQDEALADVLQRGCWSETEFSGEQGEWQAEKITADGSQFHVLLKGERVGQVNWSLVGDHNVSNALMAIAAARHVGVAPELACEALGLFVNTKRRLELKGEINGVTVYDDFAHHPTAIELTLGGLRNKVGDKKIIAVLEPRSATMKLGVHKETLAASLHSADSVYLYQPSNIPWSVEEVAKQCQQPAQVSANMDEFVAMIAKEAQAGDQILVMSNGGFEGIHGKLLAALQQKEGHHHHHH”, the “soluble on expression in E. coli” value is reported as “soluble”. For “AAAKPADKALQAQLPEMALPREAAPRLDGLAAVLPQIHPAEAGKPAESFSLALPPSQPESWSGKLQAALGERLQAMPAQNMDRATLRLDPPSLGTLEISLRHQAGALTVELTASHGEVVRQLQGIGEALRQDLGGRQYTQVAVEVREGM”, the “soluble on expression in E. coli” value was “not soluble”. For “MDFKDILRQLSERIEKLRDNLQTEEATKNALIMPFIQAMGYDVFNPLEVIPEFTCDIGTKKGEKIDYAIMRDNEPIILIECKHWRDTLTLADNQLLRYFHVSSAKFGMLTNGIIYRFYTDLDQANKMDEKPFLEVNMLDLRDNQIEELKQFHKSYFDVDKILSTASELKYMKELKDLILAEMNEPSEQFVRMLAKQVYDGIITAKIFEQFKDLTQKSFKSVINDLITARFKTVMDKSKEVAASEEQSQEQDDSNEPLVVTTEAEMEAYMIVKGILRKYINIDRIASRDTQSYFSVLLDDNNRKPICRFYFNTANKYLATFEEGKKEVKTLLNSLDDLFMHEKSIAKSLALYVDTEESALIVKSKE”, the “soluble on expression in E. coli” value was “soluble”. With “MGSDKIHHHHHHMSGIRLVRAKITYLHDSCTFNFINENMSVKLLWSVPYRGDRMITYESVYPIQSKDVAKLIITKVRNNPKTLSVFDRSINGKTLFIGYLEYSDNSPFYLSNRVGTIFYDEYTGTGGDVISMITTADNFDLIREDLSVYGKIVHRQVQEIEAESINGPPRLTEMQEKVLRNAFEMGFFNYPKDVHLKDIAQKIGVSAVSVDQYLREAQRKLIRAYLNG” the “soluble on expression in E. coli” value was “not soluble”. For “GSSHHHHHHGSMLNMWKVRELVDKATNVVMNYSEIESKVREATNDDPWGPSGQLMGEIAKATFMYEQFPELMNMLWSRMLKDNKKNWRRVYKSLLLLAYLIRNGSERVVTSAREHIYDLRSLENYHFVDEHGKDQGINIRQKVKELVEFAQDDDRLREERKKAKKNKDKYVGVSSD”, the “soluble on expression in E. coli” value was “soluble”. In the case of “MSKEIDISIRYLENVLSTNNSTLILSSTAAVLEAVSKNCDTTNGELKRSIISLLRIIDKKCFLNQDVDVNQIKFSLQEVGKLSTKYPKSHQKPGNEVKVKTNAEFREIETVPNPDEENIDNLLNQLNLKKVPSFSPAFPDIGDDSDDENGITTKQKEEERAEQHGQKVCEEEVVKLPDGREIRMKKTKTVNVKQTTKHVTISTKSANMPEVSRTFMNARRGFDEDEEEENTNFGSSNMRGGDPFERFRSMLKDKDEKIEAIEGESSSDPGTPGSSSKSKTIERTSEVSQKVSEKKEKDGRLLAEHEASKLDKSNLFAKQVDTYQGAALIDRKGEGSYEESTLVRSALPQDSQVATPPRMHVVEYMMMFGDDKKNNENEYLKGTTISSYVRLNNNLTTHEEQFKKKIQFEFSTAGTSSTTIDLDNLSDLLNQTDFNCLRPPNKFLEDTPLIVEQPKAIDWQREPTSAPPEKDLLLEHDGVDYVIFREKEGKVLEVRGGPKDALIVYATQSTHSSLLYQEAFLITFRTFISSLELVNKLIKRYLYMSLADDSQSESIARHTFSVIVRIIDETTQYELDFDLITSVTSFVYRLIHDGNFTYSRILRTRLLDRIKDSFDIQTVLGTNLCKPRKPHDLFDFKSAEIACQLTFIDSQLYHRIESAELLWWAQEQNEKKSKNLVNFTEQFNNLSFWVRTLIITQGTQKERERHMMKFVKIMKHLREMCNFNSYLAILSAIMSTPLARLEWSKNIKDALKEHTAVMDTAQSYKNYRALLQTAKPPCVPYIGIILQDLTFVHAGNPDTIPSDRCHGAKNMINFLKRWNQFAILDSIRKLKKWNYDIKKNDIVVQYFNGFKDCIDEERTWQLSHQIKPSNRKSKTQA”, the “soluble on expression in E. coli” value is reported as “not soluble”. For “MGSDKIHHHHHHMTTGKLSHAHLCGWLRFKHLTLLTTLAESRNMHATARVMHLSQPAASKMLRDLEVYFGFALFERLPRAMQPTELGEQVIRHAWILLNDMERLVDDINDLREGGYGQLLIGAIAAAAPEILPAAIARLKQARPRLSVSLQEQTSDRLLLELEHKRLDLVIGRLTHVSQHNLFDFEPLLDEPLRVVVRRDHPLTRRGEAPSLDELSHWPWILHPLSSPMRGVFESALAEEGIATPANVVETTSIQATLQLLQSSDMLAVLPRSVMRRPLAGGQYVVLERVIGKPLDYYGIITRRQEPLSPAVEELVVHLRRLAAEADGR”, the “soluble on expression in E. coli” value was “not soluble”. With “MDIVISGGTGLIGRAITEIQGNTYNVITRGPSRTDGNINLVNWNDLRKIRHCDVVINLAGYNIGSKRWNPKIKEEIIRSRIESTRRMVEFISSLDSKPEAFLSGSAIGYYGYGENTVFDENSPPGTGFLAELANAWEDEALKASRYTRTVILRTSNVLSSSGGFLARIMNSRSRRVYYFGDGDQPVSWIHIKDYVNAVKFLMENKDISGPVNMAAPSPVSFADLAHAIAREKGYKEMKIPEFIGKLILGSEMYRELMSGQRVAPKKLTGSGFSFQYPDLESAIKNLLEHHHHHH” the “soluble on expression in E. coli” value was “not soluble”. In the case of “MQEISFRDDILPLKDKLFRLALRITFDRAEAEDVVQDTMIRVWNKREEWTQFGSIEAYCLTVAKNLAIDRSQKKEAQNVELTPEMEEESEISGPYDQ”, the “soluble on expression in E. coli” value is reported as “not soluble”. With “MGSDKIHHHHHHMDCNGSGGSSDDDKPLHHDGGVRMKFFRSVGEVFGYSPFRSLAQHARMCGRAVGLLQQQFEALRRGNYEEVEELREEIDELEHHADQIKEEIRGNVTKSLMLPVDRHDLLEFLKVQDDILNNCEHVGHMVTFRKVSAPEDVWDEFLVLLSKLMEIVNNYEEMVERIMQLVETSFSKKEVNRALEYVPIIEQLEHECDLIQIGLHTKLFNLENSNPLDIQLMVTWVVHLGYVANAAARASDRFRIMILGR” the “soluble on expression in E. coli” value was “not soluble”. With “MSLSGFNYEKNQPHQMRAVSAVLGVFDGATPKYRTADENPELLFAAKQYANNILKVQSQNGIDGRFPDRSDDQNILDISMETGTGKTYTYTQTMFELHRWLGVFKFIVVVPTLSIKAGTQQFLQSKALAEHFEQDFGGDYEGVRLKTYVVESAKKNKGKKSNAPITIEQFVKAENKKEIHVLLINAGMVNSSSMNDTGDKALKDLFDNPVDALAAVRPFMIVDEPHKFPTRDSAKTWGNIKRLKPQYILRYGATFNDEYYNLLYRLTAVDAFNDGLVKGVRVFQEEMQGGMDAAVKLVSSDGKEAKFELNEKDKKQTFKLAKGEDLAQIHPAISDLKIDKMNKTVVVLSNGLELKTGAVINPYSYSQTVQDAMMQRAVAEHFKLERALLAERAPQPKIKPLTLFFIDDIAGYRSGNELSGSLKDKFESWIRAEAARRLKTESDPFYRDYLQKTLDDVSACHGGYFSKDNTDSDDRIEQEINEILHDKEKLLSLDNPRRFIFSKWTLREGWDNPNVFQICKLRSSGSTTSKLQEVGRGLRLPVNELMARVRDVPYKLNYFVDSSEKDFVKQLVGEINDNSFQEEISKKFTEELKQKILQKYPDIKPLVLVNQLFLDGIIDDNENFAEDGYDKLKAAYPEAFPKGLDKGKVSNAKDEGKDTIIMREGKYEELKALWELIHHKAVLQYKIKDEAEFADLFTAYLHENAAKFPQAGIRTAVNEAYINNGLMLSRRIDSFEDEDFIRFNTMTYREFLEKLAQTAKIRMQTLHQAFYCIRNELNIGDFLNMQTIAQIKNGFNRFLLHHSFHKFELDYRLVGSKIHPTKFTNKDGKPRAVKKADLGRFEDTEHRPAAGYLFGEIFYDSDIEHENVANNQIEGVIVFTKIPRNSIKIPVAGGGTYSPDFAYIVKTKSGEILNFVIEAKGTDGAEDLRKSEERKIKHAEKLFAEISKEIKVVFKTQFDGERIAELIGQNMPAGGHSENGREGHHHHHH” the “soluble on expression in E. coli” value was “not soluble”. In the case of “RMNLFDLGTHHALVDYAHNPAGYEAVGAFVKNWPGERIGVVGGPGDRRDEDLILLGRIAAAVFDRIIVKEDDDKRGRHAGEVADLIRQGIQEENPNCQYETILDEQRALNVALDEAPQEALVVIFPES”, the “soluble on expression in E. coli” value is reported as “not soluble”. For “MNYYSEKIEVVKLADQVAAKLQQLIGSGEYKKGDKIPTEPELMARFGVGRSTVRESVRILANAGLLSVLQGKGTFVQDTTVVAEPLHQRLRRANNKELNEVRHMLEITMVQKAAENRTEKEVKQMRTLLNQRRRAIEEQLQDECLNADIAFHVVIAEASKNQVLIDLYKTFSKVISEYFQTEYPDTKAYKRSQALHEKLCDAIATKESKKAAEYMSQILSLD”, the “soluble on expression in E. coli” value was “not soluble”. With “MGHHHHHHSHMCSSGGPVDRAPDSSKDGKNHHKTMGHYNHNDSLRKTQINSLKNSVACPGAQKAITSSEAVDRFMPRTTQLQERKRRREDDRKLGTFLQTNPTGNEIMIGPLLPDISKVDMHDDSLNTTANLIRHKLKEVISSVPKPPEDKPEDVHTSRPLKQRRRI” the “soluble on expression in E. coli” value was “soluble”. In the case of “MEASMERFDNAPETALAWHRQGLGAALATVVETWGSAPRRVGAQLVIGGDGRIEGSVSGGCVEGAVIVEALEALEEGQARLLEFGVSDEDAFAVGLACGGTIRVLVEPVGQVLSEVMLAELVAARASRQALAYVVDTARGTRALVRDAYPERMRMDRSGFDEDGRTFVAVHNPPLRLIVVGAVHIAQALVPMARIAGYDPVVIDPREAFASDARFPGETILHDWPDEAVAKLGLDARTALVLLTHDPKLDDPALEAALAADVFYIGALGSTRTHAKRVARMQEAGFTEAQIGRIHGPVGLDIGAAGPAEIAVAILAQMTAVLRGRA”, the “soluble on expression in E. coli” value is reported as “soluble”.
